Source: patent US20220064276A1 (SCHOLAR ROCK, published 2022)
Changes are numbered by the printed parent chain.

Assays:
[1] = molecular target: T1, human LRRC33-proTGFβ1 complex (human, UniProt Q86YC3 19-650; P01137 30-390, limits assumed); assay: Octet, antibody immobilized
T1 construct: Exemplary entries; also called huLRRC33 proTGFb1; HuLRRC33-ProTGFb1

[2] = molecular target: T2, mouse LTBP3-proTGFβ1 complex (mouse, UniProt Q61810 41-1245; P04202 30-390, limits assumed); assay: Octet BLI, IgG captured
T2 construct: Exemplary entries; also called Mo LTBP3-proTGFβ1; Murine LTBP3 proTGFb1
Method: (§1) LTBP complex-specific antibodies from the first round of affinity maturation/optimization (SR-AB14, SR-AB16, SR-AB17, SR-AB18, SR-AB19) were selected for a second round of affinity maturation/optimization (i.e., CDR-H3 mutagenesis as described herein) and particular progeny antibodies (SR-AB20, SR-AB21, SR-AB22, SR-AB23, SR-AB24, SR-AB25, SR-AB26, SR-AB27, SR-AB28, and SR-AB29) were assessed for their ability to bind various proTGFβ1 constructs. Binding affinities of the optimized antibodies were measured by Octet against human LTBP1-proTGFβ1, human LTBP3-proTGFbl, mouse LTBP1-proTGFβ1, mouse LTBP3-proTGFbl, and GARP-proTGFβ1 complexes, essentially as described in Example 6. […] The antigens were allowed to associate for 3 minutes followed by a 5-minute dissociation. Kinetics buffer (ForteBio®) was used throughout the experiment, and KD was determined using a 1:1 fitting model for each antibody antigen pair.

[3] = molecular target: T3, mouse LTBP1-proTGFβ1 complex (mouse, UniProt Q8CG19 339-1712; P04202 30-390); assay: Octet BLI, IgG captured
T3 construct: Exemplary entries; In the cell assays expressed from mouse LTBP1S and mouse proTGFb1 plasmids in LN229 cells; also called Mo LTBP1-proTGFβ1; MuLTBP1-ProTGFb1
Method: as §1
Target sequence in this assay (Q8CG19 339-1712 limits assumed, chain 1 of 2): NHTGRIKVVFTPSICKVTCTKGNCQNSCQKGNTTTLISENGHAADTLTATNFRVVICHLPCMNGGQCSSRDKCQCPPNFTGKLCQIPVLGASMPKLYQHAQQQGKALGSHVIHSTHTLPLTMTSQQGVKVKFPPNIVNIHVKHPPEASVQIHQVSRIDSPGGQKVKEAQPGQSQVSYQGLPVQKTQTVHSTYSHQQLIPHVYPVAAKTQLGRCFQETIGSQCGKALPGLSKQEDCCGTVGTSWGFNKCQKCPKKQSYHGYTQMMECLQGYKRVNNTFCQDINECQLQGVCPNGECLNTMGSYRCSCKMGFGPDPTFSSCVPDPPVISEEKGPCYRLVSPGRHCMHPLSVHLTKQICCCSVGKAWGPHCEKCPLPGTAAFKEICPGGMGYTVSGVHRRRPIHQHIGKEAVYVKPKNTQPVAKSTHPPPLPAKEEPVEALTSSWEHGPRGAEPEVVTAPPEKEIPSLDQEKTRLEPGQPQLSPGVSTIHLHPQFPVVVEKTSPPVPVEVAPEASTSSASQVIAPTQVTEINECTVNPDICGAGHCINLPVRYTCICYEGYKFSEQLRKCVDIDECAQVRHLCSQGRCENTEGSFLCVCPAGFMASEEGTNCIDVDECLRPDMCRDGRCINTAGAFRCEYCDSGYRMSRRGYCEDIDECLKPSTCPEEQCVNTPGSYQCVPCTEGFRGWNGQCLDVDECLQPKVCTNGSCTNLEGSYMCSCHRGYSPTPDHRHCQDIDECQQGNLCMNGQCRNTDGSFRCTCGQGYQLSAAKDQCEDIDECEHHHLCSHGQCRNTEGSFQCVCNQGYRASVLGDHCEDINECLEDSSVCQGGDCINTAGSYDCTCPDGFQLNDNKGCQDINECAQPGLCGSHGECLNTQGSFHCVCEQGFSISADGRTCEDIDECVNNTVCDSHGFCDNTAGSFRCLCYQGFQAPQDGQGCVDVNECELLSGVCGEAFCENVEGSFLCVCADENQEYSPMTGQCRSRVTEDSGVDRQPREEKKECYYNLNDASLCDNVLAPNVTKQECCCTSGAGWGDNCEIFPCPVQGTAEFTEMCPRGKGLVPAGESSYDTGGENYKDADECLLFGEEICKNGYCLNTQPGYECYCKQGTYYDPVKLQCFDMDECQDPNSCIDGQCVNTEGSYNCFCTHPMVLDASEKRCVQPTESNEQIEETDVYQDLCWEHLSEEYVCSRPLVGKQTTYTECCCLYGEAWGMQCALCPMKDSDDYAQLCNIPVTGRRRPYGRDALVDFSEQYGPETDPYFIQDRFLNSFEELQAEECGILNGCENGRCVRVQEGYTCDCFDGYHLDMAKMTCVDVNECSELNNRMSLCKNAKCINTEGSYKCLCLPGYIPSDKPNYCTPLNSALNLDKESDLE
Target sequence in this assay (P04202 30-390 limits assumed, chain 2 of 2): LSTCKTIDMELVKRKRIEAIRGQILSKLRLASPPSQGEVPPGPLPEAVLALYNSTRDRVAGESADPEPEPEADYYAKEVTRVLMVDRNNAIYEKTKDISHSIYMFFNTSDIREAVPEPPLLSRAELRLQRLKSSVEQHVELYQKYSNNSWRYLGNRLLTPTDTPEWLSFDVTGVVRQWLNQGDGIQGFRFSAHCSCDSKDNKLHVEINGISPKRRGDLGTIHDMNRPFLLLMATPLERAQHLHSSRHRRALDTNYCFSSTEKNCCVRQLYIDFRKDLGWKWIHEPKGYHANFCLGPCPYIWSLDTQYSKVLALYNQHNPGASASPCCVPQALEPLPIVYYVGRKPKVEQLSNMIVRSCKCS

[4] = molecular target: T4, human LTBP1-proTGFβ1 complex (human, UniProt Q14766 347-1721; P01137 30-390); assay: Octet BLI, IgG captured
T4 construct: Large latent complex: one presenting molecule disulfide-linked to a proTGFβ1 dimer; also called Hu LTBP1-proTGFβ1; huLTBP1 proTGFβ1
Method: as §1

[5] = molecular target: T5, human LTBP3-proTGFβ1 complex (human, UniProt Q9NS15 44-1303; P01137 30-390, limits assumed); assay: Octet BLI, IgG captured
T5 construct: Exemplary entries; also called Hu LTBP3-proTGFβ1; huLTBP3 proTGFb1
Method: as §1

[6] = molecular target: T6, human GARP-proTGFβ1 complex (human, UniProt Q14392 18-627; P01137 30-390, limits assumed); assay: Octet (bio-layer interferometry), response at 200 nM antigen; 0.1 nm cutoff designates meaningful binding
T6 construct: Exemplary entries; also called Hu GARP-proTGFβ1; huGARP proTGFb1
Method: This experiment was performed at 200, 100, 50, and 25 nM human GARP proTGFb1 and human LTBP1 proTGFbl. […] Surface plasmon resonance (SPR)-based assays

[7] = molecular target: LTBP-proTGFβ1: transfected human proTGFβ1 presented by endogenous LTBP1/3 of LN229 cells (human); assay: cell-based or functional assay
[8] = molecular target: T3, mouse LTBP1-proTGFβ1 complex; assay: cell-based or functional assay
Target sequence in this assay (Q8CG19 339-1712 limits assumed, chain 1 of 2): as the sequence (Q8CG19 339-1712 limits assumed, chain 1 of 2) above
Target sequence in this assay (P04202 30-390 limits assumed, chain 2 of 2): as the sequence (P04202 30-390 limits assumed, chain 2 of 2) above

[9] = molecular target: T4, human LTBP1-proTGFβ1 complex; assay: Octet binning; competitor (immobilized second antibody) SR-AB13
Method: (§2) 500 nM of human LTBP1-proTGFb1 complex was pre-incubated with 1 μM of each test antibody. After an overnight incubation, the LTBP1-proTGFβ1+first antibody was tested for binding to a second antibody which was immobilized to an Anti-Human IgG Fc Capture (AHC) sensor tip at 67 nM. The sensor tip was blocked with a negative control antibody (HuNeg) before seeing the LTBP1-proTGFβ1+first antibody.
(§3) Normalized responses less than 70% or less than 0.7 of the uninhibited interaction were considered antibodies that cross block.

[10] = molecular target: T4, human LTBP1-proTGFβ1 complex; assay: Octet binning; competitor (immobilized second antibody) SR-AB1
Method: as §2, §3

[11] = molecular target: T2, mouse LTBP3-proTGFβ1 complex; assay: Octet (bio-layer interferometry), yeast expressed IgG1Agly antibody, antigen at a single 100 nM per Example 6
[12] = molecular target: T6, human GARP-proTGFβ1 complex; assay: as above
[13] = molecular target: T7, mature TGFβ1 (UniProt P01137 279-390); assay: FIG. 2B binding assay
T7 construct: mature

[14] = molecular target: T8, LTBP1 alone (Homo sapiens (Human), UniProt Q14766 347-1721); assay: ELISA on immobilised antigen (Example 4), RLU, mean ± SD
T8 construct: LTBP1 not in complex with TGFβ1
T8 sequence: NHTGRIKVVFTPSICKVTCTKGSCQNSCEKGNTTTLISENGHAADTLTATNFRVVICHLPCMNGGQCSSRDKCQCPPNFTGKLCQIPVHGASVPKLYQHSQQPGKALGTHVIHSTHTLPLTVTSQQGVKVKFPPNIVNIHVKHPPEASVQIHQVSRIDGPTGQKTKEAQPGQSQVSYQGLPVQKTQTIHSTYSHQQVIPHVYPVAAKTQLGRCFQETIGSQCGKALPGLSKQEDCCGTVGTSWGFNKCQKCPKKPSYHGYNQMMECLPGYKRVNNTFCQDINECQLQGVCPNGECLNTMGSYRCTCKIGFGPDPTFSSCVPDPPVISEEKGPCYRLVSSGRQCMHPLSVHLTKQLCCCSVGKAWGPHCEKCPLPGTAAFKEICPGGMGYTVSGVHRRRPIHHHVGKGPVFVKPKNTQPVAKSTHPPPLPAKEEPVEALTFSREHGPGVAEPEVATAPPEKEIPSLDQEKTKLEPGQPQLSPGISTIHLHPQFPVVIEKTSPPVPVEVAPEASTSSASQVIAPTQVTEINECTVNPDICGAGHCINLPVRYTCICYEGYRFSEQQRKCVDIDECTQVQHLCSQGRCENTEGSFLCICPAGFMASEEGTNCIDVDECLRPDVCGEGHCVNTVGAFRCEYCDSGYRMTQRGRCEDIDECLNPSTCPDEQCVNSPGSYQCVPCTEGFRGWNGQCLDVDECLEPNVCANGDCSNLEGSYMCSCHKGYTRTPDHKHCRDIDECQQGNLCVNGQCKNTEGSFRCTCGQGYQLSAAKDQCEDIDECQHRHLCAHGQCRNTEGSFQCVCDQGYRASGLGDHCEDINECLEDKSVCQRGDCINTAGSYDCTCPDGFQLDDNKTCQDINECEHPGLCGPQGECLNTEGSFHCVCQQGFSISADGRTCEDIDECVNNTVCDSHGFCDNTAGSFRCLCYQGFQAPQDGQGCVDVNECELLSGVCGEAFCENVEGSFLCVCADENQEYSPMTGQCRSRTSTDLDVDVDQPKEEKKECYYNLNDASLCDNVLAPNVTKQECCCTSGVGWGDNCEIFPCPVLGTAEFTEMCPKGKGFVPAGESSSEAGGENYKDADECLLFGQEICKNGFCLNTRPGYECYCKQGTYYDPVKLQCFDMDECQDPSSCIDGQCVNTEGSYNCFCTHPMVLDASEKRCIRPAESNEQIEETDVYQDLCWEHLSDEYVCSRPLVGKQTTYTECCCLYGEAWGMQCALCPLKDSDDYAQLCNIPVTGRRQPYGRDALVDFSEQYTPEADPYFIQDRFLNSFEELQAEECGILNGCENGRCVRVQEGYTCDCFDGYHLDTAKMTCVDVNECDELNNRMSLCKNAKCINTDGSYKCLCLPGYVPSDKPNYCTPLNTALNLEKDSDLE

[15] = molecular target: T9, proTGFβ1 alone (Homo sapiens (Human), UniProt P01137 30-390); assay: as above
T9 construct: proTGFβ1 not in complex with a presenting molecule

[16] = molecular target: T3, mouse LTBP1-proTGFβ1 complex; assay: bio-layer interferometry sensorgrams (y axis nm), concentration series with kinetic table under the panel; concentrations not shown
Target sequence in this assay (P04202 30-390 limits assumed, one chain of several): as the sequence (P04202 30-390 limits assumed, chain 2 of 2) above

[17] = molecular target: T4, human LTBP1-proTGFβ1 complex; assay: as above
[18] = molecular target: T10, Rat LTBP1-proTGFβ1 (rat); assay: as above
T10 construct: the sheet labels the whole complex 'Rat'; Named only on the sheet; The legend says only that SR-AB2 cross-reacts with rodent LTBP1-proTGFβ1

[19] = molecular target: T3, mouse LTBP1-proTGFβ1 complex; assay: Octet (bio-layer interferometry), yeast expressed IgG1Agly antibody, antigen at a single 100 nM per Example 6, 1:1 fit; value printed under the panel
Target sequence in this assay (P04202 30-390 limits assumed, one chain of several): as the sequence (P04202 30-390 limits assumed, chain 2 of 2) above

[20] = molecular target: T4, human LTBP1-proTGFβ1 complex; assay: as above
[21] = molecular target: T4, human LTBP1-proTGFβ1 complex; assay: Octet binning; competitor (immobilized second antibody) SR-AB10
Method: as §2, §3

[22] = molecular target: T4, human LTBP1-proTGFβ1 complex; assay: Octet binning; competitor (immobilized second antibody) SR-AB2
Method: as §2, §3

T4 sequence (P01137 30-390 limits assumed, one chain of several): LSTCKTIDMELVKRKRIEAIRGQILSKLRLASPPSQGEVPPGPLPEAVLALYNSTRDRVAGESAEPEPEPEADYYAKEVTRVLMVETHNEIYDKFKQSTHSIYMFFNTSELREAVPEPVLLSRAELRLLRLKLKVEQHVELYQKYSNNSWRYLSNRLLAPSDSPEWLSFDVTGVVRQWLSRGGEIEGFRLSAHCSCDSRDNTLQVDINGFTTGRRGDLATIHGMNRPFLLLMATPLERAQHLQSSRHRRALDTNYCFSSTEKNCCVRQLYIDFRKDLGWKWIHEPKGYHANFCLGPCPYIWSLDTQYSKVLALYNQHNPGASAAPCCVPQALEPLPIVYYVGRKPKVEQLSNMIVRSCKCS
T2 sequence (Q61810 other isoform, or with tags, fused parts or gaps limits assumed, chain 1 of 2): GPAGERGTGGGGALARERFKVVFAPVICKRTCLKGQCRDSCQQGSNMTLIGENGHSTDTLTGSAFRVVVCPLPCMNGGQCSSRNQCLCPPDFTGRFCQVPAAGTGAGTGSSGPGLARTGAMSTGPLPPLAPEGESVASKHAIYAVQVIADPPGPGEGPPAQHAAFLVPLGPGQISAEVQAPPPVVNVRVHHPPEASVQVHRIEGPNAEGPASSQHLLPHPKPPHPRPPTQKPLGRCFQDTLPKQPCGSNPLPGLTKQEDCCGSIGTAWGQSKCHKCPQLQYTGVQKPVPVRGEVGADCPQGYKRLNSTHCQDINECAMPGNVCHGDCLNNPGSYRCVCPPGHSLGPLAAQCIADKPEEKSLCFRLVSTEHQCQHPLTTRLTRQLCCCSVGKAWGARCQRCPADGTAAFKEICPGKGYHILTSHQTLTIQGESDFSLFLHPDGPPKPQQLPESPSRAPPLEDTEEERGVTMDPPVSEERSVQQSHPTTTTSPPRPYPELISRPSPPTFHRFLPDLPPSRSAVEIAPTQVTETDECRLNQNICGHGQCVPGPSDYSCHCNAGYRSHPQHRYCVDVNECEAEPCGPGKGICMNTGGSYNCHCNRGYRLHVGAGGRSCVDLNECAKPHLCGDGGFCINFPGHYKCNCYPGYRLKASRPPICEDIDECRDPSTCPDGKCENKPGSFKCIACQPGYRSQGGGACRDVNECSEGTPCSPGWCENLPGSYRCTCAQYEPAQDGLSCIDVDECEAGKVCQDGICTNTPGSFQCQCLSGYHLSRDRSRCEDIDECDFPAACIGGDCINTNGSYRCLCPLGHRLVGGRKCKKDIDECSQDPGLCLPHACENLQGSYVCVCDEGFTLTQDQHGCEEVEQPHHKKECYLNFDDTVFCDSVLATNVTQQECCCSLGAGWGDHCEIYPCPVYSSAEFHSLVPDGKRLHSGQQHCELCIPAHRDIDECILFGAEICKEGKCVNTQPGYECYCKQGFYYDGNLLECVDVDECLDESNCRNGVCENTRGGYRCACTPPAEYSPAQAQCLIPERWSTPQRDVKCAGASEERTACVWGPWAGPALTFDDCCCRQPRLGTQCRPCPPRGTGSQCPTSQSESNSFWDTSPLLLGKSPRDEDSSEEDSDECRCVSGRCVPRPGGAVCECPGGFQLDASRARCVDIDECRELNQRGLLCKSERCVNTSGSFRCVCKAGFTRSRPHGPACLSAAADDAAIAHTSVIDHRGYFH
T2 sequence (P04202 30-390 limits assumed, chain 2 of 2): as the sequence (P04202 30-390 limits assumed, chain 2 of 2) above
T9 sequence (P01137 30-390): as the sequence (P01137 30-390 limits assumed, one chain of several) above
Chain of LTBP-proTGFβ1: transfected human proTGFβ1 presented by endogenous LTBP1/3 of LN229 cells (human) (P01137 30-390): as the sequence (P01137 30-390 limits assumed, one chain of several) above
T7 sequence (P01137 279-390 limits assumed): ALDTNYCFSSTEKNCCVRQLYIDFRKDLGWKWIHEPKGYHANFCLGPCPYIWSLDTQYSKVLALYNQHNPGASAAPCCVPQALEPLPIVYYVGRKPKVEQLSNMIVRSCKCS

B1: SR-AB23 (antibody, IgG1, V domains shown)
VH: QVQLVESGGGVVQPGRSLRLSCAASGFTFRSYVMHWVRQAPGKGLEWVAVISHEGSLKYYADSVKGRFTISRDNSKNTLYLQMNSLRAEDTAVYYCARPRIAARRGGFGYWGQGTLVTVSS
VL: NFMLTQPHSVSESPGKTVTISCTRSSGNIDNNYVQWYQQRPGSSPTTVIYEDNQRPSGVPDRFSGSIDSSSNSASLTISGLKTEDEADYYCQSYDSDNQGVVFGGGTKLTVL
notes: Cycle 2, lineage SR-AB14
In the case of B1, the binding result [1] is reported as “no binding”, the Kd [2] is reported as 7.93 nM and the Kd [3] is reported as 8.38 nM. For the same binder, the Kd [4] was 5.98 nM, the Kd [5] was 1.26 nM and the binding result [6] was “no binding (tested: 200 nM)”. For the same binder, the “IC50, endogenous hLTBP assay (CAGA12 luciferase)” value [7] was 6.04 nM and the “IC50, mLTBP1 assay (CAGA12 luciferase)” value [8] was 0.946 nM.

B2: SR-AB2 (antibody, V domains shown)
VH: QVQLVQSGAEVKKPGASVKVSCKASGYTFTSYGISWVRQAPGQGLEWMGWISAYNGNTNYAQKLQGRVTMTTDTSTSTAYMELRSLRSDDTAVYYCARAPLGNFDSWGQGTMVTVSS
VL: B1 VL with N28S, D30A, N31S, D97S, Q99H, G100P
B2 was tested, and the normalized response [9] was 1.31 fraction of uninhibited binding, the normalized response [10] was 1.11 fraction of uninhibited binding and the binding result [11] was “no binding (tested: 100 nM)”. B2: no binding (tested: 100 nM) [12]; no binding [13]; no binding [14]. The binding result [15] was “no binding”, the Kd [16] was 204 nM and the kobs [16] was 0.0134 s⁻¹. The koff [16] was 0.00517 s⁻¹, the kon [16] was 26600 M⁻¹ s⁻¹ and the Kd [17] was 188 nM. For the same binder, the kobs [17] was 0.0142 s⁻¹, the koff [17] was 0.00502 s⁻¹ and the kon [17] was 28400 M⁻¹ s⁻¹. The Kd [18] was 174 nM, the kobs [18] was 0.0176 s⁻¹ and the koff [18] was 0.00582 s⁻¹. The kon [18] was 41900 M⁻¹ s⁻¹, the Kd [19] was 245 nM and the Kd [20] was 118 nM. The normalized response [21] was 1.54 fraction of uninhibited binding and the normalized response [22] was 0.47 fraction of uninhibited binding.
